# Laboratory results as given in patent publication US20210101937A1 (Bicycle, published 2021).
# B1: BCY12242 (peptide)
# peptide 1: DXCSAGWLTMCQKLKLCPSH
# peptide 2: CXPEXPYCFADPYXCA
# modifications: Ac-C[tBuAla]PE[D-Lys(PYA)]PYCFADPY[Nle]CA; Cys residues bonded to TATA scaffold; [Ac]D[HArg]CSAGWLTMCQK(Ac)LKLCPSH; Cys residues bonded to TATA scaffold
# B2: BCY12375 (peptide)
# peptide 1: SDKCSAGWLTMCQKLHLCPSH
# peptide 2: CXEEKPYCFADPYXCX
# modifications: [Ac]C[tBuAla]EE(dK)PYCFADPY[Nle]C[Dap(PYA)]; carries Palmitic acid-PEG10 (Example 1); Cys residues bonded to TATA scaffold; Ac-SDKCSAGWLTMCQK[PYA]LHLCPSH; Cys residues bonded to TATA scaffold
# B3: BCY12230 (peptide)
# peptide 1: DXCSKGWLTMCQKLHLCPSH
# peptide 2: CXPEXPYCFADPYXCA
# modifications: Ac-C[tBuAla]PE[D-Lys(PYA)]PYCFADPY[Nle]CA; Cys residues bonded to TATA scaffold; [Ac]D[HArg]CSKGWLTMCQK(Ac)LHLCPSH; Cys residues bonded to TATA scaffold
# Target: CD137 (UniProt Q07011 24-255, limits assumed)
# Assay: cell-based or functional assay
# Sequence of CD137 (Q07011 24-255 limits assumed): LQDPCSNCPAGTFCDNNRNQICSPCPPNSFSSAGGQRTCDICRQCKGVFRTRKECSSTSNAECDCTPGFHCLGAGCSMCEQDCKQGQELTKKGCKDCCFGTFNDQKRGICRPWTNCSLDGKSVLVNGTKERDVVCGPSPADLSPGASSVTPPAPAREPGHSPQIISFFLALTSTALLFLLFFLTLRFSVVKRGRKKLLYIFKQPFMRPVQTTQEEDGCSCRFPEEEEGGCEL
Binder,EC50 [nM],Fold Induction over background [fold over background]
B1,20,13
B2,22,3
B3,46,10
